Experimental data as given in the supplement of paper PMC6757056.
± gives the standard deviation of the averaged measurements.

B1: library; a variant is named by its letters at N, in order (parent)
chain: GCUGUCACCGGUGUAUUACCCUAGUGGUCGACCGGUCUGAUGAGUCUNNNNNNAGACGAAACAGC

Tests used:
[1] = variants of: B1; experiment: FACS-Seq fitted mean relative fluorescence mCherry/BFP without ligand (log10 relative fluorescence); ligand: hypoxanthine (xanthine aptamer); higher = higher reporter protein expression; conditions: HEK293T, ligand present: no
Procedure, shortened: (§1)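 Fluorescence figures are normalized fitted normal means of sequenced bin counts. Enriched, lentivirally transduced HEK293T libraries with a ribozyme-switch mCherry reporter and EF1α-BFP were held 48 h with or without ligand, then sorted into 6 mCherry/BFP bins. PCR-amplified, barcoded genomic DNA from each bin was sequenced on MiSeq. Means of log10(mCherry/BFP) were scaled to five spiked-in control ribozymes.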

[2] = variants of: B1; experiment: normalized RNA/DNA level with ligand (relative to sTRSVctl = 100) (log10 (% of sTRSVctl)); ligand: hypoxanthine (xanthine aptamer); higher = less ribozyme self-cleavage, higher mRNA level; conditions: ligand concentration (+) RNA-Seq: 5 mM, HEK293T, reporter: mCherry (pCS4076), ligand present: yes
Procedure, shortened: (§2)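 HEK293T cells received ligand, where used, 1 h before being transfected with 4 µg per 6-well well of library plasmids encoding reporter-linked ribozyme switches. After 72 h, RNA was extracted with EDTA and sequenced. RNA level was derived from RNA reads per DNA read, normalized to a spiked-in non-cleaving sequence or the top sequences, then scaled and log-transformed. Values were ×100 then log10, the top set was 25 sequences, and the minimum was 100 DNA reads.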

[3] = variants of: B1; experiment: normalized RNA/DNA level without ligand (relative to sTRSVctl = 100) (log10 (% of sTRSVctl)); ligand: hypoxanthine (xanthine aptamer); higher = less ribozyme self-cleavage, higher mRNA level; conditions: HEK293T, reporter: mCherry (pCS4076), ligand present: no
Procedure, shortened: as §2

[4] = variants of: B1; experiment: FACS-Seq fitted mean relative fluorescence mCherry/BFP with ligand (log10 relative fluorescence); ligand: hypoxanthine (xanthine aptamer); ligand concentration (+) FACS-Seq: 5 mM; higher = higher reporter protein expression; conditions: HEK293T, ligand present: yes
Procedure, shortened: as §1

Variant	FACS-Seq fitted mean (log10) [1]	normalized RNA/DNA level with ligand (log10) [2]	normalized RNA/DNA level without ligand (log10) [3]	FACS-Seq fitted mean (log10) [4]
AGUAGA	0.394 ± 0.025	1.83 ± 0.031	1.42 ± 0.025	0.725 ± 0.0082
AGUAGU	0.38 ± 0.09	1.831 ± 0.016	1.45 ± 0.07	0.577 ± 0.036
GUAAGG	0.181 ± 0.047	1.87 ± 0.042	1.38 ± 0.015	0.408 ± 0.026
GUAAGC	0.302 ± 0.007	1.886 ± 0.015	1.53 ± 0.023	0.667 ± 0.078
GUAAGA	0.291 ± 0.0051	1.89 ± 0.0055	1.73 ± 0.01	0.214 ± 0.029
AGUCGU	0.577 ± 0.17	1.903 ± 0.013	1.68 ± 0.029	0.561 ± 0.15
AGUCGG	0.0517 ± 0.00086	1.85 ± 0.049	1.48 ± 0.085	0.38 ± 0.078
AGUCGA	0.423 ± 0.022	1.95 ± 0.035	1.61 ± 0.058	0.654 ± 0.0092
GGUCUA	0.4701 ± 0.0031	1.896 ± 0.0023	1.9 ± 0.022	0.586 ± 0.022
UGUUAU	-0.225 ± 0.19	1.89 ± 0.0069	1.817 ± 0.0095	-0.287 ± 0.069
UGUCUA	-0.725 ± 0.058	1.95 ± 0.067	1.92 ± 0.02	-0.723 ± 0.08
GGGUAU	0.137 ± 0.2	1.94 ± 0.053	1.71 ± 0.047	0.374 ± 0.03
GGGUAG	-0.254 ± 0.0079	1.74 ± 0.03	1.44 ± 0.079	0.395 ± 0.063
GGGUUG	0.034 ± 0.047	1.92 ± 0.024	1.64 ± 0.073	0.486 ± 0.065
GGGUUA	0.574 ± 0.047	1.99 ± 0.018	1.845 ± 0.013	0.558 ± 0.01
AGGUUG	0.0275 ± 0.013	1.88 ± 0.021	1.48 ± 0.042	0.557 ± 0.036
GUAACG	0.351 ± 0.015	1.93 ± 0.048	1.59 ± 0.022	0.537 ± 0.02
UGUCGG	0.0812 ± 0.15	1.9 ± 0.04	1.543 ± 0.01	0.151 ± 0.019
UGUCGU	0.313 ± 0.02	1.91 ± 0.036	1.61 ± 0.041	0.591 ± 0.008
GGUGGC	0.217 ± 0.017	1.89 ± 0.039	1.57 ± 0.025	0.392 ± 0.007
GGUGGA	0.261 ± 0.029	1.951 ± 0.0027	1.71 ± 0.026	0.43 ± 0.028
CGUGCA	0.438 ± 0.026	1.932 ± 0.0054	1.72 ± 0.03	0.662 ± 0.033
CGUGCU	0.599 ± 0.1	1.909 ± 0.0056	1.899 ± 0.0073	0.518 ± 0.04
GGUGAU	0.445 ± 0.047	1.93 ± 0.039	1.763 ± 0.012	0.5584 ± 0.0013

Variant	FACS-Seq fitted mean (log10) [1]	normalized RNA/DNA level with ligand (log10) [2]	normalized RNA/DNA level without ligand (log10) [3]	FACS-Seq fitted mean (log10) [4]
GGUGAC	0.507 ± 0.018	1.8808 ± 0.00054	1.798 ± 0.0044	0.543 ± 0.1
GGUGAG	-0.242 ± 0.013	1.77 ± 0.063	1.29 ± 0.086	0.303 ± 0.045
UGUUUG	-0.153 ± 0.036	2.04 ± 0.037	1.93 ± 0.035	0.0349 ± 0.0062
GGUGUA	0.31 ± 0.061	1.91 ± 0.027	1.765 ± 0.0096	0.381 ± 0.023
GGUGUG	-0.123 ± 0.13	1.783 ± 0.013	1.29 ± 0.051	0.24 ± 0.004
AGGUGA	0.38 ± 0.046	1.86 ± 0.028	1.46 ± 0.04	0.623 ± 0.045
AGUAUA	0.449 ± 0.0061	1.91 ± 0.079	1.7692 ± 0.0007	0.472 ± 0.057
CUACAA	0.07 ± 0.013	1.9 ± 0.013	1.79 ± 0.044	-0.0643 ± 0.025
CGUGGA	0.123 ± 0.011	1.96 ± 0.02	1.729 ± 0.0031	0.396 ± 0.057
CGUGGG	0.0862 ± 0.026	1.85 ± 0.022	1.3 ± 0.078	0.505 ± 0.047
GUAAUU	0.444 ± 0.086	1.91 ± 0.047	1.9 ± 0.025	0.229 ± 0.036
GUAAUC	0.801 ± 0.026	1.95 ± 0.046	1.756 ± 0.012	0.81 ± 0.068
GUAAUG	0.27 ± 0.022	1.853 ± 0.0059	1.52 ± 0.028	0.529 ± 0.0072
UUACAC	0.362 ± 0.025	1.92 ± 0.079	1.81 ± 0.025	0.444 ± 0.051
UGGUUC	-0.0246 ± 0.0066	1.96 ± 0.063	1.925 ± 0.018	0.212 ± 0.028
UGGUUU	0.325 ± 0.015	1.95 ± 0.023	1.885 ± 0.005	0.434 ± 0.035
CUAAUC	0.365 ± 0.027	1.94 ± 0.037	1.9 ± 0.043	0.43119 ± 0.00031
CUAAUG	0.65 ± 0.052	1.922 ± 0.018	1.79 ± 0.068	0.577 ± 0.044
UUAACG	0.325 ± 0.025	1.94 ± 0.06	1.85 ± 0.052	0.41 ± 0.025
CGUAUA	0.422 ± 0.015	1.91 ± 0.025	1.641 ± 0.007	0.566 ± 0.016
AGUGUA	-0.349 ± 0.012	1.9 ± 0.044	1.71 ± 0.035	-0.0909 ± 0.009
AGUGUG	0.0689 ± 0.056	1.8 ± 0.038	1.32 ± 0.038	0.489 ± 0.033
AGUACG	0.173 ± 0.058	1.84 ± 0.022	1.38 ± 0.052	0.423 ± 0.086
UGUACA	0.848 ± 0.044	1.919 ± 0.018	1.85 ± 0.066	0.78 ± 0.076

Variant	FACS-Seq fitted mean (log10) [1]	normalized RNA/DNA level with ligand (log10) [2]	normalized RNA/DNA level without ligand (log10) [3]	FACS-Seq fitted mean (log10) [4]
UGUACU	0.71 ± 0.019	1.933 ± 0.012	1.8501 ± 0.00062	0.66 ± 0.018
AUACAA	0.364 ± 0.062	1.9 ± 0.037	1.76 ± 0.024	0.532 ± 0.013
GGUAUG	-0.113 ± 0.019	1.73 ± 0.052	1.32 ± 0.038	0.434 ± 0.035
UGUCCU	0.984 ± 0.042	1.95 ± 0.091	1.93 ± 0.039	0.87 ± 0.054
UGUCCC	0.383 ± 0.13	2 ± 0.12	1.935 ± 0.013	0.29 ± 0.068
GGUUGG	-0.0305 ± 0.021	1.83 ± 0.074	1.27 ± 0.014	0.558 ± 0.021
GGUUGC	-0.0647 ± 0.067	1.92 ± 0.037	1.52 ± 0.035	0.345 ± 0.043
GGUAGC	0.239 ± 0.017	1.86 ± 0.054	1.35 ± 0.059	0.647 ± 0.056
GGUAGG	-0.101 ± 0.028	1.69 ± 0.062	1.29 ± 0.041	0.5153 ± 0.001
GGUAGU	0.573 ± 0.11	1.9 ± 0.06	1.75 ± 0.0084	0.507 ± 0.034
AGUCAU	0.385 ± 0.052	1.92 ± 0.0085	1.79 ± 0.023	0.509 ± 0.025
GGGUGC	0.296 ± 0.1	1.9 ± 0.036	1.52 ± 0.017	0.348 ± 0.011
GGGUGG	-0.2387 ± 0.0022	1.91 ± 0.046	1.54 ± 0.05	0.3262 ± 0.0019
GGGUGA	0.0881 ± 0.05	1.95 ± 0.033	1.71 ± 0.031	0.487 ± 0.0065
AGUUAA	0.799 ± 0.015	1.92 ± 0.04	1.76 ± 0.032	0.802 ± 0.094
AGUUAG	0.335 ± 0.052	1.8 ± 0.054	1.44 ± 0.078	0.569 ± 0.019
AGUUAC	0.497 ± 0.083	1.89 ± 0.011	1.775 ± 0.016	0.655 ± 0.14
UGUAAG	0.327 ± 0.084	1.9 ± 0.033	1.67 ± 0.063	0.586 ± 0.075
AUAAGC	0.474 ± 0.0089	1.918 ± 0.014	1.786 ± 0.01	0.6615 ± 0.0049
AUAAGU	0.122 ± 0.094	1.852 ± 0.0077	1.629 ± 0.011	0.279 ± 0.058
AUAAGG	0.0649 ± 0.081	1.8 ± 0.019	1.4 ± 0.038	0.345 ± 0.062
AUAAGA	0.457 ± 0.047	1.9 ± 0.045	1.715 ± 0.0051	0.556 ± 0.068
AGUAAU	0.85054 ± 0.00034	1.88 ± 0.03	1.85 ± 0.056	0.78 ± 0.058
